This is an account of results in US20180274043A1.

For this test, the target named is human HER3 receptor (human) (UniProt P21860). The test is described as follows: cell-based or functional assay.

As to “neuregulin-1 (from UniProt Q02297 177-241) (ligand)”, the fold induction of 6×JNK-Luc reporter activity at 100 ng/ml NRG1 turned out to be 4.2 fold and the fold induction of JNK-Luc (3 copies of AP-1) reporter activity at 100 ng/ml NRG1 was found to be 2.6 fold.
